# Test results taken from patent publication US12385914B2, “CRY1-clock-BMAL1 complex-disrupting agents and methods of identifying and using same” (The Regents of the University of California, priority 2017, dated 2025).
# Entries after “also recorded” stand apart in the source; their conditions may differ.
# Biological target: T1, CRY1-CLOCK PAS-B domain complex (Mus musculus, UniProt P97784)
# T1 construct: His6 (N, cleaved yes); made in house; host or cells: CRY1 PHR: Sf9 insect cells (baculovirus)
# T1 sequence (P97784 with tags, fused parts or gaps): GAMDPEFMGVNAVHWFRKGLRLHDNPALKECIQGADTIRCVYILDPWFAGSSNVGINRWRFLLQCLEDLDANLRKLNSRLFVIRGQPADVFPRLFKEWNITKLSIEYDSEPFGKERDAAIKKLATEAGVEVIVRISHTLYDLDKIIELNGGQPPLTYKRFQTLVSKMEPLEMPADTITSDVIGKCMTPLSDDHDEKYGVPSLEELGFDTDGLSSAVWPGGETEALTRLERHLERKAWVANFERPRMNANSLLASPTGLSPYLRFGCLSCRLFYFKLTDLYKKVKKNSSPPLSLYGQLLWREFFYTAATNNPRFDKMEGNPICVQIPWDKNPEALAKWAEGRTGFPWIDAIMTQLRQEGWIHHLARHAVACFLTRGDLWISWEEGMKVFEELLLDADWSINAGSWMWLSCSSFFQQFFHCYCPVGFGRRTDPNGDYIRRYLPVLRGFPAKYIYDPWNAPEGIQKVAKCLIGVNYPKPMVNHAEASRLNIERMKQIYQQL
# Experiment: Fluorescence polarization (FP)-based displacement assay of labeled CLOCK PAS-B from CRY1 PHR
# Assay type: binding
# Conditions: 100 μM peptide; 20 nM CLOCK PAS-B probe and 4 μM CRY1 PHR; triplicate wells; FIG. 13
# Description: Described in this example is a fluorescence polarization (FP)-based displacement assay developed by the inventors for identifying agents that disrupt the CRY1-CLOCK-BMAL1 ternary complex.
# CRY1 PHR and CLOCK PAS-B domain fluorescently labeled at its N-terminus were prepared as described in the preceding examples. Equipment/Reagents included the following: Greiner 384 Well Assay Plate, 120 μl rounded square wells, flat bottom, black polystyrene; Envision 2103 Multilabel Reader (2103-0020); Fluorescence Polarization (FP) assay buffer (50 mM Bis-Tris Propane, 100 mM NaCl, 2 mM TCEP, 0.05% Tween-20, 0.5% DMSO, pH 7.5); and GraphPad Prism (version 6 or higher). All assay components were buffer exchanged into FP buffer.
# A stock assay mixture of 8 μM CRY1 and 40 nM labeled CLOCK PAS-B was incubated at 4° C. overnight. Equal volumes (half of final well volume) stock assay mixture was dispensed into wells of the Greiner 384 Well Assay Plate, reserving wells for appropriate controls. […] Fluorescence polarization was measured using an Envision 2013 plate reader.
# A labeled CLOCK PAS-B-only control of 20 nM was used to determine the G-factor for FP. The G-factor should be variable “G” such that Fluorescence polarization (FP)=1000*(S−G*P)/(S+G*P). […] G=(S/P)*(1−27/1000)/(1+27/1000), with S being the parallel fluorescence intensity, and P being the perpendicular fluorescence intensity. […]
substance,measurement,value
"peptide encoded by CRY1 Exon 11: 23 residue peptide encoded by human CRY1 Exon 11 (residues 530-552), sequence CSQGSG1LHYAHGDSQQTHLLK; positive control inhibitor (CSQGSGILHYAHGDSQQTHLLK; listed as Homo sapiens)",displacement of CLOCK PAS-B from the CRY1 PHR,displaced CLOCK PAS-B from the CRY1 PHR; also recorded: able to displace CLOCK PAS-B from the CRY1 PHR
